Assay: overnight CpaA digestion, SDS-PAGE
Details: glycan changed form; control: untreated fetuin

B1: fetuin (alpha-2-HS-glycoprotein): asialofetuin (protein)
parent chain: MKSFVLLFCLAQLWGCHSIPLDPVAGYKEPACDDPDTEQAALAAVDYINKHLPRGYKHTLNQIDSVKVWPRRPTGEVYDIEIDTLETTCHVLDPTPLANCSVRQQTQHAVEGDCDIHVLKQDGQFSVLFTKCDSSPDSAEDVRKLCPDCPLLAPLNDSRVVHAVEVALATFNAESNGSYLQLVEISRAQFVPLPVSVSVEFAVAATDCIAKEVVDPTKCNLLAEKQYGFCKGSVIQKALGGEDVRVTCTLFQTQPVIPQPQPDGAEAEAPSAVPDAAGPTPSAAGPPVASVVVGPSVVAVPLPLHRAHYDLRHTFSGVASVESSSGEAFHVGKTPIVGQPSIPGGPVRLCPGRIRYFKI
**Q.** For B1, which “other: proteolytic processing” value is on record?
**A.** no change
